# Assay results published in patent US20140219913A1 (AbbVie / Abbott, published 2014).
# T1: Recombinant human B7-1/CD80 Fc chimera (Cat. 140-B1-100, R&D Systems) (human, UniProt P33681 35-242)
# T1 construct: extracellular domain; also called B7-1 antigen; Fc part of the bought chimera not given; not described
# T1 sequence (looked up): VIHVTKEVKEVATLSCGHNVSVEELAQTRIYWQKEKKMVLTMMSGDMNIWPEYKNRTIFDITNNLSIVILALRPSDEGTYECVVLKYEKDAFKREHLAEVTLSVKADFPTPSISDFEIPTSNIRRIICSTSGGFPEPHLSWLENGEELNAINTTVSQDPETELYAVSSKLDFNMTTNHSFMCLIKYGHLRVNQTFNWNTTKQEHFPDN
# T2: Recombinant human B7-2/CD86 Fc chimera (Cat. 141-B2-100, R&D Systems) (human, UniProt P42081 26-245)
# T2 construct: Fc part of the bought chimera not given; not described
# T2 sequence (looked up): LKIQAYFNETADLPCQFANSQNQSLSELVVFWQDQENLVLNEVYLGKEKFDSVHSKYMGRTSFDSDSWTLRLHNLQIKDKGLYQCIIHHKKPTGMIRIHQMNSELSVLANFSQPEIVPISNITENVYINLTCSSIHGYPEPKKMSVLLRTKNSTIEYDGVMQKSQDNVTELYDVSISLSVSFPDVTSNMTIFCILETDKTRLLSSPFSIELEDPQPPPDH
# Experiments:
# [1] = molecular target: T1, Recombinant human B7-1/CD80 Fc chimera …; test: competitive ELISA; coated CD28 Fc, biotinylated B7-1/CD80 Fc (2 nM), construct titrated
# Procedure: (§1) ELISA plates (Nunc, MaxiSorp, Rochester, N.Y.) were incubated overnight at 4° C. with Recombinant Human CD28 Fc Chimera (Cat. #342-CD-200). Plates were washed three times in washing buffer (PBS containing 0.05% Tween 20), and blocked for 1 hour at 25° C. in blocking buffer (PBS containing 1% BSA). Wells were washed three times, and serial dilutions of each antibody or DVD-Ig in PBS containing 0.1% BSA were added to the wells and incubated at 25° C. for 1 hour. The wells were washed three times, and biotinylated antigen (2 nM) was added to the plates and incubated for 1 hour at 25° C. The wells were washed three times and incubated for 1 hour at 25° C. with streptavidin-HRP (KPL #474-3000, Gaithersburg, Md.). The wells were washed three times, and 100 μl of ULTRA-TMB ELISA (Pierce, Rockford, Ill.) was added per well. Following color development the reaction was stopped with 1N HCL and absorbance at 450 nm was measured. Recombinant human B7-1/CD80 Fc chimera (Cat. 140-B1-100, R&D Systems, Minneapolis, Minn.) was used.
# [2] = molecular target: T2, Recombinant human B7-2/CD86 Fc chimera …; test: competitive ELISA; coated CD28 Fc, biotinylated B7-2/CD86 Fc, construct titrated
# Procedure: as §1
# Recombinant human B7-2/CD86 Fc chimera (Cat. 141-B2-100, R&D Systems, Minneapolis, Minn.) was used.
EC50 [1] [nM],EC50 [2] [nM],Binder
1.6,1.3,"RAB011 (other, rDVD-Ig with LEA29Y on the heavy chain only and anti-NGF variable domains; also called RAB011H; RAB011L) VH: AMHVAQPAVVLASSRGIASFVCEYASPGKYTEVRVTVLRQADSQVTEVCAATYMMGNELTFLDDSICTGTSSGNQVNLTIQGLRAMDTGLYICKVELMYPPPYYEGIGNGTQIYVIDPEPCPDSDASTKGPQVQLQESGPGLVKPSETLSLTCTVSGFSLIGYDLNWIRQPPGKGLEWIGIIWGDGTTDYNSAVKSRVTISKDTSKNQFSLKLSSVTAADTAVYYCARGGYWYATSYYFDYWGQGTLVTVSS VL: DIQMTQSPSSLSASVGDRVTITCRASQSISNNLNWYQQKPGKAPKLLIYYTSRFHSGVPSRFSGSGSGTDFTFTISSLQPEDIATYYCQQEHTLPYTFGQGTKLEIKR"
2.7,0.3,"RAB009 (other, rDVD-Ig with LEA29Y on the light chain only; also called RAB009H; RAB009L) VH: EVQLVQSGAEVKKPGASVKVSCKASGYTFTKYWLGWVRQAPGQGLEWMGDIYPGYDYTHYNEKFKDRVTLTTDTSTSTAYMELRSLRSDDTAVYYCARSDGSSTYWGQGTLVTVSS VL: AMHVAQPAVVLASSRGIASFVCEYASPGKYTEVRVTVLRQADSQVTEVCAATYMMGNELTFLDDSICTGTSSGNQVNLTIQGLRAMDTGLYICKVELMYPPPYYEGIGNGTQIYVIDPEPCPDSDTVAAPDVLMTQTPLSLPVTPGEPASISCTSSQNIVHSNGNTYLEWYLQKPGQSPQLLIYKVSNRFSGVPDRFSGSGSGTDFTLKISRVEAEDVGVYYCFQVSHVPYTFGGGTKVEIKR"
2.5,4.2,"RAB012 (other, rDVD-Ig with LEA29Y on the light chain only and anti-NGF variable domains; also called RAB012H; RAB012L) VH: QVQLQESGPGLVKPSETLSLTCTVSGFSLIGYDLNWIRQPPGKGLEWIGIIWGDGTTDYNSAVKSRVTISKDTSKNQFSLKLSSVTAADTAVYYCARGGYWYATSYYFDYWGQGTLVTVSS VL: AMHVAQPAVVLASSRGIASFVCEYASPGKYTEVRVTVLRQADSQVTEVCAATYMMGNELTFLDDSICTGTSSGNQVNLTIQGLRAMDTGLYICKVELMYPPPYYEGIGNGTQIYVIDPEPCPDSDTVAAPDIQMTQSPSSLSASVGDRVTITCRASQSISNNLNWYQQKPGKAPKLLIYYTSRFHSGVPSRFSGSGSGTDFTFTISSLQPEDIATYYCQQEHTLPYTFGQGTKLEIKR"

# Further lines, the binder ahead of its results:
Binder,EC50 [1] [nM],EC50 [2] [nM]
"RAB007 (other, rDVD-Ig with LEA29Y on both chains; also called RAB007H; RAB007L) VH: AMHVAQPAVVLASSRGIASFVCEYASPGKYTEVRVTVLRQADSQVTEVCAATYMMGNELTFLDDSICTGTSSGNQVNLTIQGLRAMDTGLYICKVELMYPPPYYEGIGNGTQIYVIDPEPCPDSDASTKGPEVQLVQSGAEVKKPGASVKVSCKASGYTFTKYWLGWVRQAPGQGLEWMGDIYPGYDYTHYNEKFKDRVTLTTDTSTSTAYMELRSLRSDDTAVYYCARSDGSSTYWGQGTLVTVSS VL: AMHVAQPAVVLASSRGIASFVCEYASPGKYTEVRVTVLRQADSQVTEVCAATYMMGNELTFLDDSICTGTSSGNQVNLTIQGLRAMDTGLYICKVELMYPPPYYEGIGNGTQIYVIDPEPCPDSDTVAAPDVLMTQTPLSLPVTPGEPASISCTSSQNIVHSNGNTYLEWYLQKPGQSPQLLIYKVSNRFSGVPDRFSGSGSGTDFTLKISRVEAEDVGVYYCFQVSHVPYTFGGGTKVEIKR",6.6,2.1
"RAB008 (other, rDVD-Ig with LEA29Y on the heavy chain only; also called RAB008H; RAB008L) VH: AMHVAQPAVVLASSRGIASFVCEYASPGKYTEVRVTVLRQADSQVTEVCAATYMMGNELTFLDDSICTGTSSGNQVNLTIQGLRAMDTGLYICKVELMYPPPYYEGIGNGTQIYVIDPEPCPDSDASTKGPEVQLVQSGAEVKKPGASVKVSCKASGYTFTKYWLGWVRQAPGQGLEWMGDIYPGYDYTHYNEKFKDRVTLTTDTSTSTAYMELRSLRSDDTAVYYCARSDGSSTYWGQGTLVTVSS VL: DVLMTQTPLSLPVTPGEPASISCTSSQNIVHSNGNTYLEWYLQKPGQSPQLLIYKVSNRFSGVPDRFSGSGSGTDFTLKISRVEAEDVGVYYCFQVSHVPYTFGGGTKVEIKR",1.5,1
